B1: LysP53: lysin from the genome of bacteriophage P53, amino acid sequence SEQ ID NO: 2, includes P104, about 24 kDa, expressed in E. coli (protein)
chain: MTMTTKRIFEHMRPNLTDSQVQALYKLMEKGADLDTIAQFAGVSPLVSTADVKQPSGFKFSQTSLKRLEGVNPKLVQVVNRALEISKEDFMVIEGVRTKESAWANWGKGRTAAQCQAAGVPTKYAQPSLAKVTWLTDPLKSKHMTGHAVDLAPIPLDWNDLKRFDLMAQAMFQASAELNIPIRWGADWDNDGVFREKGETDSPHFELAG

Key:
Gram-negative bacteria [1] = assay: Activity comparison of P104 and LysP53 in vitro, overall; type: cell-based; conditions: stable phase, 37° C., 1 h
Experimental: (§1) A variety of strains including Acinetobacter baumannii, Pseudomonas aeruginosa, Klebsiella pneumoniae and Escherichia coli are cultured to stable phase (OD600nm between 1.2-1.4), respectively, and each precipitate is collected by centrifugation at 4° C., rinsed once with Tris-HCl buffer, and then the rinsed precipitate is dissolved in Tris-HCl buffer to obtain the bacterial solution. At the same time, mixed solutions including the same amount of the buffer and the above bacterial solution are prepared and used as the negative controls. After incubation at 37° C. for 1 h, the number (CFU) of the bacteria in the solutions are counted by plating on agar plates.

Gram-negative bacteria [2] = assay: Lysis spectrum of LysP53 in vitro, overall; type: cell-based; conditions: 100 μg/mL LysP53, stable phase, 37° C., 1 h
Experimental: (§2) A variety of strains including Acinetobacter baumannii, Pseudomonas aeruginosa, Klebsiella pneumoniae and Escherichia coli are cultured to stable phase (OD600nm between 1.2-1.4), respectively, and each precipitate is collected by centrifugation at 4° C., rinsed once with Tris-HCl buffer, and then the rinsed precipitate is dissolved in Tris-HCl buffer to obtain the bacterial solution. The lysin LysP53 prepared in the embodiment 2 is taken and mixed with the above bacterial solutions, respectively, to make the final concentration of the lysin LysP53 to be 100 μg/mL. At the same time, mixed solutions including the same amount of the buffer and each of the above bacterial solutions are prepared and used as negative controls. After incubation at 37° C. for 1 h, the number (CFU) of the bacteria in the solutions are counted by plating on agar plates.

A. baumannii WHG40137 [3] = assay: Effect of pH on lytic activity of LysP53 against A. baumannii WHG40137 (CFU plate count); type: cell-based, Acinetobacter baumannii; conditions: 100 μg/mL LysP53, logarithmic phase, 1 h
Experimental: A. baumannii WHG40137 is cultured to logarithmic phase (OD600nm between 0.4-0.6) first. Then, the precipitates are collected by centrifugation at 4° C., rinsed once with Tris-HCl buffer, and dissolved in Tris-HCL buffer with different pH values (pH 5-8) to obtain A. baumannii WHG40137 bacterial solutions. Finally, the lysin LysP53 prepared in the embodiment 2 is taken and mixed with the A. baumannii WHG40137 bacterial solutions to make the final concentration of the lysin LysP53 to be 100 μg/mL. At the same time, mixed solutions including the same amount of the buffer and the above bacterial solution are prepared and used as the negative controls. After incubation at 37° C. for 1 h, the number (CFU) of the bacteria in the solutions are counted by plating on agar plates.

A. baumannii WHG40137 [4] = assay: Time dependence of lysin LysP53 lysing A. baumannii WHG40137 (CFU plate count); type: cell-based, Acinetobacter baumannii; conditions: 100 μg/mL LysP53, logarithmic phase, 37° C.
Experimental: Acinetobacter baumannii (A. baumannii) WHG40137 is cultured to logarithmic phase (OD600nm between 0.4-0.6), and the precipitate is collected by low-temperature centrifugation, rinsed once with Tris-hydrochloride (Tris-HCl) buffer, and then the rinsed precipitate is dissolved in the buffer to obtain an A. baumannii WHG40137 bacterial solution. The lysin LysP53 prepared in the embodiment 2 is added in and mixed with the A. baumannii WHG40137 bacterial solution to make the final concentration of the lysin LysP53 to be 100 micrograms per milliliter (μg/mL). At the same time, a mixed solution including the same amount of the buffer and the above bacterial solution is prepared and used as negative control. During incubation of the solutions at 37° C., aliquots were sampled, respectively, at different times and used to count the number (colony-forming unit abbreviated as CFU) of the bacteria in the solutions by plating on agar plates.

A. baumannii WHG40137 [5] = assay: Effect of EDTA concentration on lytic activity of LysP53 against A. baumannii WHG40137 (CFU plate count); type: cell-based, Acinetobacter baumannii; conditions: 100 μg/mL LysP53, stable phase, EDTA 0, 62.5, 125, 250, 500 μM, 37° C., 1 h
Experimental: A. baumannii WHG40137 is cultured to stable phase (OD600nm between 1.2-1.4), and the precipitate is collected by centrifugation at 4° C., rinsed once with a Tris-HCl buffer, and is dissolved in Tris-HCl buffer to obtain an A. baumannii WHG40137 bacterial solution. The lysin LysP53 prepared in the embodiment 2 is taken and mixed with the A. baumannii WHG40137 bacterial solution containing EDTA at different concentrations (0 μM, 62.5 μM, 125 μM, 250 μM, and 500 μM) to make the final concentration of the lysin LysP53 to be 100 μg/mL. At the same time, mixed solutions including the same amount of the Tris-HCl buffer solution and each of the above bacterial solutions are used as negative controls. After incubation at 37° C. for 1 h, the number (CFU) of the bacteria in the solutions are counted by plating on agar plates.

Escherichia coli [6] = assay: Lysis spectrum of LysP53 in vitro (CFU plate count); type: cell-based; conditions: 100 μg/mL LysP53, stable phase, 37° C., 1 h
Experimental: as §2

Acinetobacter baumannii [7] = assay: as above; type: cell-based; conditions: 100 μg/mL LysP53, stable phase, 37° C., 1 h
Experimental: as §2

Klebsiella pneumoniae [8] = assay: as above; type: cell-based; conditions: 100 μg/mL LysP53, stable phase, 37° C., 1 h
Experimental: as §2

Pseudomonas aeruginosa [9] = assay: as above; type: cell-based; conditions: 100 μg/mL LysP53, stable phase, 37° C., 1 h
Experimental: as §2

Escherichia coli [10] = assay: Activity comparison of P104 and LysP53 in vitro (CFU plate count); type: cell-based; conditions: stable phase, 37° C., 1 h
Experimental: as §1

Acinetobacter baumannii [11] = assay: as above; type: cell-based; conditions: stable phase, 37° C., 1 h
Experimental: as §1

Klebsiella pneumoniae [12] = assay: as above; type: cell-based; conditions: stable phase, 37° C., 1 h
Experimental: as §1

Pseudomonas aeruginosa [13] = assay: as above; type: cell-based; conditions: stable phase, 37° C., 1 h
Experimental: as §1

A. baumannii WHG40137 [14] = assay: Lytic activity of LysP53 against A. baumannii WHG40137 on burned skin surfaces of mice; type: in vivo, Acinetobacter baumannii; conditions: female BALB/c mice, burn site infected 24 h, 14 μg LysP53 topical vs 4 grams (g) minocycline, 4 h after treatment
Experimental: Female BALB/c mice aged 6-8 weeks are anesthetized by intraperitoneal injection of 40 milligrams per kilogram (mg/kg) pentobarbital (also referred to as pentobarbitone), and then shaved with an electric razor to remove 2 square centimeters (cm 2) of hair on the back. Partial burn can be achieved by exposing the naked skin to water at 65° C. for 12 s. 10 μL, of A. baumannii WHG40137 with a concentration of 10^8 CFU/mL is taken and inoculated at the burn site, and after colonization for 24 h, the mice are randomly divided into three groups. In the first group, there are 12 mice, and 14 μg of the lysin LysP53 is applied to the burn site of each mouse. In the second group, there are 12 mice, and 4 grams (g) minocycline is applied to the burn site of each mouse. In the third group, there are 9 mice, and the same amount of buffer solution is applied to the burn site of each mouse. Four hours after treatment, the mice are euthanatized and the infected skin is excised, infiltrated with 1 mL of phosphate buffered saline with Tween® 20 (PBST) and 0.1% Triton X-100 for 2 min, and homogenized with a tissue cell disruptor (NewZongKe, Wuhan, China). Finally, an aliquot of the suspension is diluted and plated to an LB plate containing 4 μg/mL of gentamicin and 2 μg/mL of meropenem, and the number of the colonies are counted after overnight culture.

A. baumannii WHG40137 [15] = assay: Lytic activity of LysP53 against A. baumannii WHG40137 at different growth periods (CFU plate count); type: cell-based, Acinetobacter baumannii; conditions: 100 μg/mL LysP53, 37° C., 1 h; logarithmic phase (OD600 0.4-0.6) vs stable phase (OD600 1.2-1.4)
Experimental: A. baumannii WHG40137 is cultured to logarithmic phase (OD600nm between 0.4-0.6) or stable phase (OD600nm between 1.2-1.4) first. Then, the precipitates are collected by centrifugation at 4° C., rinsed once with Tris-HCl buffer, and dissolved in Tris-HCL buffer to obtain an A. baumannii WHG40137 bacterial solution. Finally, the lysin LysP53 prepared in the embodiment 2 is taken and mixed with the A. baumannii WHG40137 bacterial solution to make the final concentration of the lysin LysP53 to be 100 μg/mL. At the same time, a mixed solution including the same amount of the buffer and the above bacterial solution is prepared and used as the negative control. After incubation at 37° C. for 1 h, the number (CFU) of the bacteria in the solutions are counted by plating on agar plates.

Molecule	lytic activity against Gram-negative bacteria (Gram-negative bacteria [1])	spectrum in lysing Gram-negative bacteria (Gram-negative bacteria [2])	lytic activity in pH range 5.0-6.5 versus pH range 7.0-8.0 (A. baumannii WHG40137 [3]; 37° C.)	concentration of the bacteria after incubation with LysP53 at pH 5.0-6.5 (A. baumannii WHG40137 [3]; pH 5.0-6.5, 37° C.)	lytic activity against Acinetobacter baumannii WHG40137 (A. baumannii WHG40137 [4])	concentration of Acinetobacter baumannii WHG40137 after incubation for 15 min (A. baumannii WHG40137 [4]; Tris-HCl buffer, 15 min)	concentration of Acinetobacter baumannii WHG40137 after incubation for 1 h (A. baumannii WHG40137 [4]; Tris-HCl buffer, 1 h)	lytic activity with increasing EDTA concentration (A. baumannii WHG40137 [5])	lytic effect on Escherichia coli (Escherichia coli [6])	lytic effect on a variety of Acinetobacter baumannii strains (Acinetobacter baumannii [7])	lytic effect on Klebsiella pneumoniae (Klebsiella pneumoniae [8])	lytic effect on Pseudomonas aeruginosa (Pseudomonas aeruginosa [9])	activity against Escherichia coli, LysP53 compared with P104 (Escherichia coli [10])	lytic activity against Acinetobacter baumannii, LysP53 compared with P104 (Acinetobacter baumannii [11])	activity against Klebsiella pneumoniae, LysP53 compared with P104 (Klebsiella pneumoniae [12])	activity against Pseudomonas aeruginosa, LysP53 compared with P104 (Pseudomonas aeruginosa [13])	lytic activity on mouse skin compared with minocycline (A. baumannii WHG40137 [14])	lytic activity in logarithmic phase versus stable phase (A. baumannii WHG40137 [15])
P104: antibacterial peptide found in the genome of bacteriophage P53, amino acid sequence SEQ ID NO: 1, chemically synthesized (MTMTTKRIFEHMRPNLTDSQVQALYKLMEKGAD)	broad-spectrum lytic activity																	
B1	broad-spectrum lytic activity	broad spectrum	better lytic activity	about 10 CFU/mL	good lytic activity	greatly reduced	about 10 CFU/mL	gradually higher	good lytic effect	good lytic effect	good lytic effect	good lytic effect	comparable activity	stronger lytic activity	comparable activity	comparable activity	higher lytic activity	higher lytic activity

Reference: patent US20240139295A1 (priority 2021, published 2024)
